Data: patent US20110039773A1

Legend:
Test in all cases: cell-based or functional assay
[1] = target: BMP-6 (human) (UniProt P22004)
[2] = target: BMP-7 R48Q/E60K/Y65N (human) (UniProt P18075)
[3] = target: BMP-7 Y78H (human) (UniProt P18075)
[4] = target: BMP-7 (human) (UniProt P18075)
[5] = target: BMP-7 E60K (human) (UniProt P18075)
[6] = target: Rev K60E (revertant of 80-1) (human) (UniProt P18075)

Sequence of UniProt P22004 (P22004 375-513): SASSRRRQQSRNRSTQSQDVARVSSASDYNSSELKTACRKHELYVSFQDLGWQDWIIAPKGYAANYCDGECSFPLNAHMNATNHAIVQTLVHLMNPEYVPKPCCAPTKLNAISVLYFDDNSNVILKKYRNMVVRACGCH

BMP-induced ID-1 gene expression by QPCR in hMSCs, BMP 50 ng/ml, Noggin 1.5 ug/ml, level against background (times background) [1]: 2
maximum percent inhibition by Noggin of BMP-induced luciferase activity, A549-BRE cells, BMP 150 ng/ml [1]: 25%
relative activity at 1000 ng/ml of noggin, reporter gene assay, conditioned media [1]: 73%
relative activity at 1000 ng/ml of noggin, reporter gene assay, conditioned media [2]: 63%
relative activity at 1000 ng/ml of noggin, reporter gene assay, conditioned media [3]: 31%
relative activity at 1000 ng/ml of noggin, reporter gene assay, conditioned media [4]: 15%
relative activity at 1000 ng/ml of noggin, reporter gene assay, conditioned media [5]: 53%
relative activity in the presence of noggin at 100 ng/ml (N1), reporter gene assay [6]: 86%
relative activity in the presence of noggin at 500 ng/ml (N2), reporter gene assay [6]: 51%
relative activity in the presence of noggin at 1000 ng/ml (N3), reporter gene assay [6]: 32%
B1: Noggin (protein, UniProt Q13253 28-232, looked up)
chain: QHYLHIRPAPSDNLPLVDLIEHPDPIFDPKEKDLNETLLRSLLGGHYDPGFMATSPPEDRPGGGGGAAGGAEDLAELDQLLRQRPSGAMPSEIKGLEFSEGLAQGKKQRLSKKLRRKLQMWLWSQTFCPVLYAWNDLGSRFWPRYVKVGSCFSKRSCSVPEGMVCKPSKSVHLTVLRWRCQRRGGQRCGWIPIQYPIISECKCSC
